This series concerns the target FITC-labeled bovine type-1 collagen (Chondrex, Cat# 4001) (UniProt P02453).

FITC-labeled bovine type-1 collagen (Chondrex, Cat# 4001), sequence (P02453 162-1217, chain 1 of 2): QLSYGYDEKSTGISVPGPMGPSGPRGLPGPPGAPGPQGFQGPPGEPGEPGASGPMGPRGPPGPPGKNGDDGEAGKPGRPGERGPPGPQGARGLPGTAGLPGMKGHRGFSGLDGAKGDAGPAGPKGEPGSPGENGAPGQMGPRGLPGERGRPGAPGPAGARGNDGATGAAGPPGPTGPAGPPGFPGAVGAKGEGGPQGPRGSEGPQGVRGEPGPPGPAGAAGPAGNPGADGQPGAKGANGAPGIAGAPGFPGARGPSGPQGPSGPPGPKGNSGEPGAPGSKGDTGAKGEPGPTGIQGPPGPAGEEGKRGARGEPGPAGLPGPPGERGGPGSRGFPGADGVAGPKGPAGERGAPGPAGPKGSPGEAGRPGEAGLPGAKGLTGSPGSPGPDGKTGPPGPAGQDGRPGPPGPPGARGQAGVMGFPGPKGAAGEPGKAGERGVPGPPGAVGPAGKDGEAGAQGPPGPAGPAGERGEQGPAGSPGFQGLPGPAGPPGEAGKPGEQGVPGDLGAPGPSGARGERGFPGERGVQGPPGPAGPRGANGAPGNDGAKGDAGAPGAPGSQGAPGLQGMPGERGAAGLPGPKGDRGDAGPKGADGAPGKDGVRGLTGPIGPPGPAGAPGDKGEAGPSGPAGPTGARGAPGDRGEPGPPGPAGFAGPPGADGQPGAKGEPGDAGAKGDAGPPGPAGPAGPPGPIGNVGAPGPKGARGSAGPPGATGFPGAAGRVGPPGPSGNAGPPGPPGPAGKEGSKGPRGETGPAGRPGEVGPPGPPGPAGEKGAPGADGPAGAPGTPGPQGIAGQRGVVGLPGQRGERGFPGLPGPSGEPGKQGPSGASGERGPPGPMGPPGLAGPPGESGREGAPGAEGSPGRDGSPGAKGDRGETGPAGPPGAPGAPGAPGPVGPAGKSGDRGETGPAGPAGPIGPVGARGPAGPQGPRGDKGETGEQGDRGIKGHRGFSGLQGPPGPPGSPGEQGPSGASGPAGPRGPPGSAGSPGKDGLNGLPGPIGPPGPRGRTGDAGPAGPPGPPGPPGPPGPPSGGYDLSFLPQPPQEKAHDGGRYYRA
FITC-labeled bovine type-1 collagen (Chondrex, Cat# 4001), sequence (P02453 other isoform, or with tags, fused parts or gaps, chain 2 of 2): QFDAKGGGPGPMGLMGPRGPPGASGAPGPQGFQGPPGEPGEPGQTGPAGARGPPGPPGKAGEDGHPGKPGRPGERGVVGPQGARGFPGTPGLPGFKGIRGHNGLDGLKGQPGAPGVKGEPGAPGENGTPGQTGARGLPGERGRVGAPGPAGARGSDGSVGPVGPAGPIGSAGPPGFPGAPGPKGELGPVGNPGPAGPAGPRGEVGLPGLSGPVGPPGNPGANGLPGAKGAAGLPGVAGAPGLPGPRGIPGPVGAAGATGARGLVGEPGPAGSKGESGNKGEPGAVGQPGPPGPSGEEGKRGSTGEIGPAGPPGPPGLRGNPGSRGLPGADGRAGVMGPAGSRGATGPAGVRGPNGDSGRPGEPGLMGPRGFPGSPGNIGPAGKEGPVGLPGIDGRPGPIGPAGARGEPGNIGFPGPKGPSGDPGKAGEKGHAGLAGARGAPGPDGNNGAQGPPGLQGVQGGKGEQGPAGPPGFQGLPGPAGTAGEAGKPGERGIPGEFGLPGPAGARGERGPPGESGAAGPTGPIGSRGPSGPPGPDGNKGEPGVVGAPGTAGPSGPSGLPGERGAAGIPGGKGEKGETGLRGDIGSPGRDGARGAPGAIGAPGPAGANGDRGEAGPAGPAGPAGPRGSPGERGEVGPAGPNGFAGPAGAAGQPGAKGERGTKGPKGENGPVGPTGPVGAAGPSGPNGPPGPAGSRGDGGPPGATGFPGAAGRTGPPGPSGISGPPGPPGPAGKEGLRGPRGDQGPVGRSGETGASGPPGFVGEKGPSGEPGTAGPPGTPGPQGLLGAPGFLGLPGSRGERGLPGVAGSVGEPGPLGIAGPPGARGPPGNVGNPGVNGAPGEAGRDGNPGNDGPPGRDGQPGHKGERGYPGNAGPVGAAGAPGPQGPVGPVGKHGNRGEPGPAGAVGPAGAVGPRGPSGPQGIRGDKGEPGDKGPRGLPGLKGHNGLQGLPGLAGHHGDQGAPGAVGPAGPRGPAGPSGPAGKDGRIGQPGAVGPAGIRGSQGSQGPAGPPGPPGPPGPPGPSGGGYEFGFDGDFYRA

With trypsin (TPCK-treated), the “collagen degradation on SDS PAGE” value was “did not show degradation of type-1 collagen”.
